Data on 4 molecules can be found in patent publication US20110256144A1 (TORAY INDUSTRIES, published 2011).

First the molecules themselves.
T1: human CAPRIN-1 protein on human cancer cells (human, UniProt Q14444 2-709)
T1 construct: whole, on cells; Endogenous protein of human cancer cell lines (flow cytometry, ADCC, CDC) and of human tumour tissue sections (immunohistochemistry); also called cytoplasmic- and proliferation-associated protein 1; GPI-anchored membrane protein 1
T1 sequence (looked up): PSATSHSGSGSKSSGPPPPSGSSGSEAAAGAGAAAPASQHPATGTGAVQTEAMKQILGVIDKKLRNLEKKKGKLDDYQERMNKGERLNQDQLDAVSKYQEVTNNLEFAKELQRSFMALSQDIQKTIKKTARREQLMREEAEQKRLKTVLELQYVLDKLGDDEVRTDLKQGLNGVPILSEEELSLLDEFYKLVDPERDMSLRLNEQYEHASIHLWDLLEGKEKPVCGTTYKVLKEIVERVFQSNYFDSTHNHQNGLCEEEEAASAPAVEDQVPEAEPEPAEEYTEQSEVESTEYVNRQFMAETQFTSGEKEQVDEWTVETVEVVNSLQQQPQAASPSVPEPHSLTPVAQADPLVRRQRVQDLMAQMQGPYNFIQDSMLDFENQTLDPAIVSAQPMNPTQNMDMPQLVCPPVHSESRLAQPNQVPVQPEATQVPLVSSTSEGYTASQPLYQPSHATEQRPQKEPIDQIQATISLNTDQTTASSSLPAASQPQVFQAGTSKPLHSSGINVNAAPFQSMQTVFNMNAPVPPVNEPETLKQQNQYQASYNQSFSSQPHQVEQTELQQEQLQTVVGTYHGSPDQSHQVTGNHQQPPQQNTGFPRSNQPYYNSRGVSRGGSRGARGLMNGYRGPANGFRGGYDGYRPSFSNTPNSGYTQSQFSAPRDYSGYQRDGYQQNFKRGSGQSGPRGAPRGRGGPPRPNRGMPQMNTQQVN

B1: monoclonal antibody #7 against CAPRIN-1 (antibody, V domains shown)
VH: LQESGAELARPGASVKLSCKASGYTFTSYWMQWVKQRPGQGLEWIGAIYPGDGDTRYTQKFKGKATLTADKSSSTAYMQLSSLASEDSAVYYCARGEYGNYFAYWGQGTTVTVSS
VL: TSDASLGERVTITCKASQDINSYLSWFQQKPGKSPKTLIYRANRLVDGVPSRFSGSGSGQDYSLTISSLEYEDMGIYYCLQYDEFPLTFGGGTKLEIKQ
notes: Mouse monoclonal antibody from a hybridoma; also called the #7 monoclonal antibody to CAPRIN-1; antibody (g)
B2: monoclonal antibody #1 against CAPRIN-1 (antibody, V domains shown)
VH: EVQLHQFGAELVKPGASVKISCKASGYTFTDYNMDWVKQSHGKSLEWIGDINPNYDSTSYNQKFKGKATLTVDKSSSTAYMELRSLTSEDTAVYYCARSRSYDYEGFAYWGQGTLVTVSA
VL: DIQMTQSPASLSASVGETVTITCRASGNIHNYLAWYQQKQGKSPQLLVYNAKTLADGVPSRFSGSGSGTQYSLKINSLQPEDFGSYYCQHFWSTLTFGAGTKLELKR
notes: also called the #1 monoclonal antibody to CAPRIN-1; antibody (a)
B3: monoclonal antibody #3 against CAPRIN-1 (antibody, V domains shown)
VH: B2 VH
VL: DIQLTQSPASLSASVGETVTITCRASGNIHNYLAWYQQKQGKSPQLLVYNAKTLADGVPSRFSGSGSGTQYSLKINSLQPEDFGSYYCQHFWSTLTFGGGTKLEIK
notes: Mouse monoclonal antibody from a hybridoma; also called the #3 monoclonal antibody to CAPRIN-1; antibody (c)
B4: monoclonal antibody #4 against CAPRIN-1 (antibody, V domains shown)
VH: B2 VH
VL: SGDRVSLSCRASQSISNYLHWYQQKSHESPRLLIKYASQSISGIPSRFSGSGSGTDFTLSINSVETEDFGMYFCQQSNSWPYTFGAGTKLEIKQ
notes: Mouse monoclonal antibody from a hybridoma; also called the #4 monoclonal antibody to CAPRIN-1; antibody (d)

The target of the first test is T1, human CAPRIN-1 protein on human cancer …. As to the kind of experiment: flow cytometry, hybridoma supernatant on human breast cancer, glioma, kidney, gastric, colon, lung cancer and leukemia cell lines; increase in MFI over control. The procedure: Each cell line (10⁶ cells) was centrifuged in a 1.5-ml microcentrifugal tube. The hybridoma supernatants (100 μl each) containing monoclonal antibodies #1 to #10 against CAPRIN-1 prepared in Example 4 reacting to cancer cell surfaces were separately added thereto and then left to stand on ice for 1 hour. After washing with PBS, each resultant was suspended in an FITC-labeled goat anti-mouse IgG antibody (Invitrogen Corporation) diluted 500-fold with PBS containing 0.1% FBS and then left to stand on ice for 1 hour. After washing with PBS, fluorescence intensity was measured using FACSCalibur (Becton, Dickinson and Company). Meanwhile, a procedure similar to the above was performed using, as a control, the control antibody prepared in (5) above instead of the hybridoma supernatants containing monoclonal antibodies #1 to […] against CAPRIN-1, so that a control was prepared. […] Based on the above, it was confirmed that the CAPRIN-1 protein was expressed on the cell surfaces of the above human cancer cell lines. In addition, the rate of increase in fluorescence intensity is represented by the rate of increase in mean fluorescence intensity (MFI value) in cells. It was calculated by the following equation.
Take B1: the “increase in fluorescence intensity over control” value was at least 30%.
The same measure, in the same setting: the result for B2 reads at least 30%; that for B3, at least 30%; that for B4, at least 30%.

The target is the same in a further test. Put plainly: cell-based or functional assay.
For B1, the “ADCC activity (chromium 51 release, mouse lymphocytes), MDA-MB-157 cells” value is at least 20% and the “CDC activity (chromium 51 release, rabbit serum), MDA-MB-231V cells” value was at least 30%.
For B2, in that order: at least 20% and at least 30%.
For B3, in that order: at least 20% and at least 30%.
The matching figures for B4: at least 20% and at least 30%.
